Measurements as given in patent publication US20160032257A1, “AGENT AND METHOD FOR MODIFYING THE 5' CAP OF RNA” (UNIVERSITÄT HAMBURG, priority 2012, published 2016).
Residue numbers refer to the chain shown, from its start. Names may count otherwise.

B1: GlaTgs2-V34A: GlaTgs2 variant, valine at position 34 replaced by alanine, SEQ ID NO: 4 (protein, listed as Giardia lamblia)
chain: MSTWLLDSKCVERMKWLFSDLPEEKRVMIKMNEAAFFSVTPAVYADEVARMMRTVLALLGKPPYAVIDGTACVGGDTRLLAKHFDMTVAIERDPETYALLQDNLTTWGVDAKTISGDTAALIPQFWTLIGAVATFSLYLDPPWGGVDYRSQTDIQLTLGSLAVEDVVNRAFEAHLSMKLAVLKLPRNYNCGYLFRKLGKHEVFRITQGNFFVFFVARRGSRVKEHGRTAMLQLRKAREEAKARSEETKEDGETRGSGE
B2: GlaTgs2-V34A, D76T: GlaTgs2 variant with exchanges V34A and D76T, SEQ ID NO: 8 (protein, listed as Giardia lamblia)
chain: B1 chain with D76L
B3: GlaTgs2-V34M: GlaTgs2 variant, valine at position 34 replaced by methionine, SEQ ID NO: 6 (protein, listed as Giardia lamblia)
chain: B1 chain with A34M
B4: GlaTgs2-WT: wild type trimethylguanosine synthase 2 from Giardia lamblia, 258 amino acids, SEQ ID NO: 1 (protein, listed as Giardia lamblia)
chain: B1 chain with A34V
B5: GlaTgs2-V34A, D76V: GlaTgs2 variant with exchanges V34A and D76V, SEQ ID NO: 9 (protein, listed as Giardia lamblia)
chain: B1 chain with D76V
B6: GlaTgs2-V34A, R92A: GlaTgs2 variant with exchanges V34A and R92A, SEQ ID NO: 10 (protein, listed as Giardia lamblia)
chain: B1 chain with R92A
B7: GlaTgs2-V34A, D76L: GlaTgs2 variant with exchanges V34A and D76L, SEQ ID NO: 7 (protein, listed as Giardia lamblia)
chain: B1 chain with D76T
B8: GlaTgs2-V34G: GlaTgs2 variant, valine at position 34 replaced by glycine, SEQ ID NO: 5 (protein, listed as Giardia lamblia)
chain: B1 chain with A34G

What was measured:
[1] = tested on: C=CC[S+](CCC(N)C(=O)O)C[C@H]1O[C@@H](n2cnc3c(N)ncnc32)C(O)[C@H]1O; test: Enzymatic parameters of GlaTgs2-WT with respect to AdoPropen (HPLC-coupled activity assay); format: biochemical, Giardia lamblia; details: other: with respect to AdoPropen, pH 8.4, 37.0 °C
Procedure: (§1) The transfer of the propenyl (AdoPropen), pentenynyl (AdoEnYn) and benzyl (AdoBenzyl) residues carried by the synthetically produced AdoMet analogues onto the N2 atom of the guanosine of m^7GpppA (A=adenine) enzymatically catalysed by the WT-GlaTgs2 (SEQ ID NO: 1) and the proteins of the invention in accordance with SEQ ID NOs: 4-10 was investigated with the aid of a HPLC-coupled activity assay.
(§2) Reaction buffer 2: 50 mM Tris; 10 mM MgCl2; 100 mM NH4OAc; pH 8.4
(§3) MTAN stands for 5′-methylthioadenosine/S-adenosylhomocysteine nucleosidase. LuxS stands for S-ribosylhomocysteine lyase.
(§4) The quantities were adjusted in proportion for larger samples of 10 or 20 μL. The quantity of AdoMet analogue used was matched such that the area of the peak in the chromatogram for a diastereoisomer of the AdoMet analogue corresponded to the area of the signal caused by m^7GpppA. The reaction was in general stopped directly after starting the reaction (t0) and after three hours at 37° C. (t180) and examined using analytical HPLC as well as MALDI-TOF.

[2] = target: T1, Giardia lamblia trimethylguanosine synthase 2 (GlaTgs2) variant GlaTgs2-V34A (V34A), SEQ ID NO: 4 (Giardia duodenalis, UniProt A8BW33, V34A); test: Enzymatic parameters of GlaTgs2-V34A with respect to AdoPropen and AdoMet (HPLC-coupled activity assay); format: biochemical
T1 construct: HPLC-coupled cap N2 methyl/alkyl transfer assay with m7GpppA, helper enzymes MTAN and LuxS
Procedure: as §1, §2, §3, §4

m^7GpppA = test: HPLC-coupled activity assay: enzymatic transfer of the residue of an AdoMet analogue onto N2 of the guanosine of m^7GpppA; format: biochemical; details: for m^7GpppA transformed: same quantity of enzyme; for TTN: Total Turnover Number
Procedure: as §1, §2, §3, §4

[3] = Thermostability (T50, 15 min incubation, residual activity, Boltzmann fit); format: physicochemical; details: for T50 (thermostability): 15 minutes incubation, Table 4; for T50 (15 min): temperature at which enzyme loses 50% of its activity after 15 minutes incubation, Table 3
Procedure: The stability of a protein characterizes its ability to tolerate denaturing influences, such as an increase in the environmental temperature, within certain limits and to maintain the native conformation. The T50 value can be used as a measure of the thermostability.
is the temperature at which an enzyme loses 50% of its activity after 15 minutes incubation. In order to determine the T50 value, the protein to be analysed is heated for 15 minutes to different temperatures in a thermocycler while a sample of the protein is incubated on ice. Next, activity tests are carried out with the previously heated proteins. […] After normalizing the values,
can be obtained using a Boltzmann fit and “Origin” software.

[4] = with respect to AdoPropen, Table 3

| Molecule | TTN (m^7GpppA; AdoPropen, Table 2) | T50 (thermostability) [3] | further results |
| --- | --- | --- | --- |
| Giardia lamblia trimethylguanosine synthase 2 (GlaTgs2-WT), wild type, SEQ ID NO: 1 (Giardia lamblia ATCC 50803) |  |  | Km [1]: 151 ± 19 μM μM; kcat [1]: 0.0015 ± 0.0013 s⁻¹ |
| C=CC[S+](CCC(N)C(=O)O)C[C@H]1O[C@@H](n2cnc3c(N)ncnc32)C(O)C1O (stereo in doubt) [AdoPropen, 5′-[(S)-[(3S)-3-amino-3-carboxypropyl]prop-2-enylsulphonio]-5′-deoxyadenosine] |  |  | affinity for AdoPropen ([2]; compared with the wild type enzyme GlaTgs2-WT): higher affinity; kcat ([2]; with respect to AdoPropen, GlaTgs2-V34A): 0.003 ± 0.0013 s⁻¹ |
| B1 | 10 ± 2 | 40.4 ± 0.2 | transfer of benzyl (m^7GpppA; AdoBenzyl as AdoMet analogue): a transfer of benzyl was observed; m^7GpppA transformed (m^7GpppA; AdoEnYn): 10%; m^7GpppA transformed (m^7GpppA; AdoPropen): 95%; TTN (m^7GpppA; [4]): 10; T50 (15 min) [3]: 40.4 ± 0.2 °C |
| B2 | 2 |  |  |
| B3 | 6 | 49.0 |  |
| B4 | 3 ± 2 | 39.9 ± 0.2 | TTN (m^7GpppA; [4]): 3; T50 (15 min) [3]: 39.9 ± 0.2 °C |
| B5 | 1 |  |  |
| B6 | 8 |  |  |
| B7 | 1 |  |  |
| B8 | 5 | 44.8 |  |
